From the nanobody polyreactivity screen of Harvey et al. (2022)

Test: yeast display, Sf9 membrane polyspecificity reagent, FACS + sequencing; frameworks hold sequencing errors
In short: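 After 36–48 hours of galactose induction, yeast (Saccharomyces cerevisiae BJ5465) displaying a synthetic nanobody library were stained at 4 °C for 1 hour with 10% biotinylated, detergent-solubilized Sf9 membrane reagent. Streptavidin microbeads enriched the stained cells before FACS sorting into low and high (top ~1%) gates on anti-HA and streptavidin fluorescence. Each clone's polyreactivity label reflects its gate of origin.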

Sequence	polyreactivity (PSR sort gate)
QVQLVESGVGLFQAGGSLRLSCAASGRIFTLYTMGWYRQAPGKEREFVAALSRTGGRTYYADSVKGRFTISRDNAKNTVYLQMNSLKPEDTAVYYCAARSQSYTTHRYYYWGQGSQVTVSS	high polyreactivity
QVQLVESGVGLFQAGGSLRLSCAPSGSTFIGYAMEWYRQAPGKERELVAAISWSGGRTYYADSVKGRFTISRDNAKNTVYLQMISLKPEDTAVYYCNTVPYRISVQFNYWGQGTQVTLSS	high polyreactivity
QVQLVESGVGLLQAGGSLRLSCADSGRIISGNAMVWYRQAPGKEREMVAAISSGGSTYYADSVKGRFTISRDNAMNTVYLQMNSLKPEATAVFYCNKRRGRKWPGNFSVVKLLMGSWGQGTQVTVSS	low polyreactivity
QVQLVESGVGLVQAAGSLRLSCAASGSTFSSYAMGWYRQAPGKERELVAVISSRGSRTYYADSVKGRFTNSRDNAKNSVYLLMNSLKPEDTAVYYCAARAVKQYGNSYESWGQGTQVTVSS	high polyreactivity
QVQLVESGVGLVQAGGRLRLSCAASGLIFNDNMGWYRQSPGKEREVVAAISSSGGSTSYADSVKGRFTISRDNAKNTVYLQMNSLKPEDTAVYYCAADSYPAYLGFVGFDYWGQGTQVTVSS	low polyreactivity
QVQLVESGVGLVQAGGRLRLSCAASGRIIYIYAMGWYRQAPGKERELVAAITASSGSTNYADSVKGRFTISRDNAKNTVYLQMNSLKPEDTAVYYCSAAPSRTLLRQTKYYYWGQGTQVTVSS	low polyreactivity
QVQLVESGVGLVQAGGSLGLTCAASGSIFYRYTMGWYREAPGKERELVAAISSDGDSTYYADSVKGRFTISRDNAKNTVYLQMNSLKPEDTAVYYCAADLEPYIGYHFYYWGQGTQVTVSS	low polyreactivity
QVQLVESGVGLVQAGGSLRFSCAASAMGWSRQAPGKERELVAVINSTGGSTYYADSVKGRFTISRDNAKNTVYLQMNSLKPDATAVYYCARVTRRGPGYTTLYSRYDYWGQGTQVSVSS	low polyreactivity
QVQLVESGVGLVQAGGSLRLICAASGFTFAKYAMGWYRQAPGKERELVAAISRSAGSTYYADSVKGRFTISRDYAKNTVYLQMNSLIPDDTAVYYCAADPLIYDDYYWGQGSQVTVSS	high polyreactivity
QVQLVESGVGLVQAGGSLRLICAASGSTFGYYAMGWYRQAPGKERELVAAITGRGGSTYYADSVKGRFTISRDNAKNTVYLQMNSLKPEDTAVYYCAVGKYRLYYSGAYGFWGQGTQVTVSS	high polyreactivity
QVQLVESGVGLVQAGGSLRLRCAASGFTFRYYAMGWNRQAPGKERELVATMSSAGTTNYADSVKGRFTISRDNAKNTVYLPMNSLKPEDTAVYYCAKDLYYRHWRGGFWGQGTQVTVSS	low polyreactivity
QVQLVESGVGLVQAGGSLRLSCAACGSTFPINAMGWYRQAPGKESELVAAISWSAGSTHYADSVKGRFTISRDNAKNTVYLQMNSLKPEDTAVYYCAAETWGLGDYWGLGTQVTVSS	low polyreactivity
QVQLVESGVGLVQAGGSLRLSCAASGFIFNYNTMGWYRQAPGKERELVAAISSSGGSTYYADSVKGRFTISRDNAKNTVYLQMNSLKPEDTAVYYCAAGANAQRVPNGDYWGQGTQVTVSS	low polyreactivity
QVQLVESGVGLVQAGGSLRLSCAASGFIFRYYTMGWYRPAPGKERELVAVITSGGTTYYADSVKGRFTISRDNAKNTVYLHMNSLIPEDTAVYYCAADYRPRLYGVGVDYWGQGSQVTVSS	low polyreactivity
QVQLVESGVGLVQAGGSLRLSCAASGFIFSSYAMGWYRQAPGKERELVAAISRSGGRTYYADSVKGRFTISRDNAKNTVYLQMNSLKPEDTAVYYCDATWLGTDGDDYWGQGTQVTVSS	high polyreactivity
QVQLVESGVGLVQAGGSLRLSCAASGFISVNNAMGWYRQAPGKERELVAAITDTDDSTYADSVKGRFTISRDNAKNTVYLQMNSLKPEDTAVYYCAAGIIYSNEPNITSYDYWGQGTQVTVSS	low polyreactivity
QVQLVESGVGLVQAGGSLRLSCAASGFTFGDNAMGWYRQAPGKERELVADITSSGSTNYADSVKGRFTISRDNAKNTVYLQMNSLKPEDTAVYYCNAVDSVDAPVYKDLGSEYDSWGQGTQVTVSS	low polyreactivity
QVQLVESGVGLVQAGGSLRLSCAASGFTFPSYTMGWYRQAPGKERELVAAITSGGITYYADSVKGRFTISRDNANYTVYLQMNSLKPEDTAVYYCAVVNFRTSVYYPYRTMDYWGQGTQVTVSS	high polyreactivity
QVQLVESGVGLVQAGGSLRLSCAASGGTFGYYVMGWYRQATGKESELVAAITSGGSTKYADSVKGRFTISRDNAKNTVYLQMNSLNPEDTAVYYCAADVTRREPYQSYDFWGQGTQVTVSS	low polyreactivity
QVQLVESGVGLVQAGGSLRLSCAASGIIFGFYAMGWYRQAPGKERELVAAISVSGGSTNYADSVKGRFTISRDNAKNTVYLQMNSLKPEDTAVYYCAARVRDSLVYGGWDDYWGQGTQVTVSS	high polyreactivity
QVQLVESGVGLVQAGGSLRLSCAASGITFNVNAMGWYRQAPGKERELVARITTSGGSTSYADSVKGRFTISRDNAKNTVYLQMNSLKPEDTAVYYCAADRARYYSEYDYWGQGTQVTVSS	low polyreactivity

Sequence	polyreactivity (PSR sort gate)
QVQLVESGVGLVQAGGSLRLSCAASGLIFPYYAMGWYRQAPGKERELVAAITSGSGTYYADSVKGRFTISRDNGKNTVYIQMNSLKPEDTAVYYCNAYILFWEYGYWGQGTQVTVSS	high polyreactivity
QVQLVESGVGLVQAGGSLRLSCAASGLIIYAYVMGWYRQAPGKERELVATISRSGARTHYADSVKGRFTISRDNAKNTVYLQMNSLKPEDTAVYYCAADVYLSSYEKYGYWGQGTQVTVSS	high polyreactivity
QVQLVESGVGLVQAGGSLRLSCAASGLTFRPNAMGWYRQAPGKERELVASISFSGGSTYYADSVKGRFTISRDNAKNTVYLQMNSLKPEDTAVYYCAADVATTHELDYWGQGTQVTVSS	high polyreactivity
QVQLVESGVGLVQAGGSLRLSCAASGLTFRYYAMGWYRQAPGKERELVAAITRRGSTYYADSVKGRFTISRDNAKNTVYLQMISLKPEVTAVYYCATVTGFHSSPLRDLDYWGQGTQVTVSS	high polyreactivity
QVQLVESGVGLVQAGGSLRLSCAASGLTYYGYVMGWYRQAPGKERELVAAISQSGGTTYYADSVNGRFTISRDNAKNTFYLHMNSLTPEDTAVYYCAADHFYILIFLYGKLTLDYWGQGTQVTVSS	high polyreactivity
QVQLVESGVGLVQAGGSLRLSCAASGRIFAFYTMGWYRQAPGKERELVAASSTRGDSTYYADSVKGRFTISRDNAKNTVYLQMNSLKAEDTAVYYCAKSRQTSGRVRFDYWGQGTQVTVSS	low polyreactivity
QVQLVESGVGLVQAGGSLRLSCAASGRIFAHNAMGWYRQAPGKERELVAAISTGGSTNYADSVKGRFTISRDNAKNTVYLQMNSLKPEDTAVYYCARDAYLPRIADGDGRYELVDYWGQGTQVTVSS	low polyreactivity
QVQLVESGVGLVQAGGSLRLSCAASGRIFGYYTMGWYRQAPGKERELVADSSGGNTSYADSVKGRFTISRDNAKNTVYLQMNSLKPEDTAGYYCAKDLPGAWRGDDYWGQGTQVTVSS	low polyreactivity
QVQLVESGVGLVQAGGSLRLSCAASGRIFIKYAMGWYRQAPGKEREFVAAISGRGGSTYYADSVKGRFTISRDNAKNTVYLQMNSLKPEDTAFYYCAKRFFYSGTAAGMYYWGQGTQVTVSS	high polyreactivity
QVQLVESGVGLVQAGGSLRLSCAASGRIFSFYAMGWYRQAPGKERELVAAITYTDGSTYAVSVKGRFTISRDYAKNTVYLQTNSLKPEDTAVYYCATRYRWTPYDYWGQGTQVTVSS	low polyreactivity
QVQLVESGVGLVQAGGSLRLSCAASGRIFTFNVMGWYRQAPGKERELVAAITFSGGSTYYADSVKGRFTISRDNAKNTVYLQMNRLKTEDTAVYFCAAKISLGDDYWGQGTQVTVSS	low polyreactivity
QVQLVESGVGLVQAGGSLRLSCAASGRIFVKYAMGWYRQAPGQEREFVAAITQGGGRTFYADSVKGRFTSSRDNAKNTVYLQMNSLKPEDTAVYYCAATGRGYGRRYFVVYRYDYWGQGTQVTVSS	high polyreactivity
QVQLVESGVGLVQAGGSLRLSCAASGRIVWGYAMGWYRQAPGKERELVATITRGGSTNYADSVKGRFTISRDNAKHTVYLQMNSLKPEDTAVYYCARDWGKSEYDYWGQGTQVTVSS	high polyreactivity
QVQLVESGVGLVQAGGSLRLSCAASGSIFFYAMGWYRQAPGKERELVADITYTGGSKYADSVKGRFTISRDNAKNTVYLQMNSLKPEDTAVYYCAKLDGGLFDYWGQGTQVTVSS	low polyreactivity
QVQLVESGVGLVQAGGSLRLSCAASGSIFGFYAMGWSRQAPGKERELVAAISDSGDSTYYADSVKGRFTISRDNAKNTVYLQMNSLKPEDTAVYNCATDGRSNYYWGDYWGQGTQVTVSS	low polyreactivity
QVQLVESGVGLVQAGGSLRLSCAASGSIFGFYAMGWYRQAPGKERELVAAITSGDSTHYADSVKGRFTISRDNAKNTVYLQMNSLKPEDTAVYYCAASAPYRYYRSAYYYWGQGTQVTVSS	low polyreactivity
QVQLVESGVGLVQAGGSLRLSCAASGSIFTYNAMGLYRQAPGKERELVAAISRRGGTTYYADSVKGRITISRDNAMNTVYLKMNSLKPEDTAVYYCNVARHYAVESGFWGPGTQVTVSS	high polyreactivity
QVQLVESGVGLVQAGGSLRLSCAASGSIINFYAMGLYRQAPGKERELVAAINYNDINTYYADSVKGRFTISRDNAKNTVYLQMNSLKPEDTAVYYCNAELNVQYLYGYTGEYDYWGQGTQVTVSS	low polyreactivity
QVQLVESGVGLVQAGGSLRLSCAASGSILFYYAMGWYRQAPGKERELVAAITYSGARSYYADSVKGRFTISRDNAKNTVYLQMNSLKPEDTAVYYWAADQVYGIGYEYWGQGTQVTVSS	low polyreactivity
QVQLVESGVGLVQAGGSLRLSCAASGSTFDTYAMGWYRQAPGKERELVAAITSSGSTYYADSVKGRFTISRDNAKNTVYLQMNSLKPEDTAVYYCAADLSYLYAHNPGDYWGQGTQVTVSS	low polyreactivity
